Earlier results on one substance are cited in PMC4122144.

Among the targets are Asp115 (UniProt position 128, ALVGADGIMIG); Asp212 (UniProt position 225, LFMVLDVSAKV); Arg82 (UniProt position 95, PIYWARYADWL); Asp85 (UniProt position 98, WARYADWLFTT); Asp96 (UniProt position 109, PLLLLDLALLV).
Conditions in all cases: Not stated. Presumably ground-state bR, since the values are compared with calculations on the 1QHJ ground-state structure.

Regarding “Bacteriorhodopsin (Halobacterium salinarum (not stated in the article; inferred))”, the pKa with Asp115 is given as over 9.5; with Asp212, under 2.5; with Arg82, over 13.8; with Asp85 it was 2.6; in the series with Asp96, over 12.0.

What is called pKa is the negative logarithm of the acid dissociation constant.
